Biological target: the molecule itself
Experiment: SDS-PAGE of deoxycholate-induced oligomers

B1: alpha-hemolysin (natural protein)
chain: ADSDINIKTGTTDIGSNTTVKTGDLVTYDKENGMHKKVFYSFIDDKNHNKKLLVIRTKGTIAGQYRVYSEEGANKSGLAWPSAFKVQLQLPDNEVAQISDYYPRNSIDTKEYMSTLTYGFNGNVTGDDTGKIGGLIGANVSIGHTLKYVQPDFKTILESPTDKKVGWKVIFNNMVNQNWGPYDRDSWNPVYGNQLFMKTRNGSMKAADNFLDPNKASSLLSSGFSPDFATVITMDRKASKQQTNIDVIYERVRDDYQLHWTSTNWKGTNTKDKWTDRSSERYKIDWEKEEMTN
notes: also called α-hemolysin; Hla
stoichiometry N: 7

Reference: PMC11043418, “Bacillus velezensis iturins inhibit the hemolytic activity of Staphylococcus aureus” (Scientific Reports, 2024)
